In PMC4551919 (Nucleic Acids Research, 2015):

Experiments:
Assay in all cases: MST
[1] = molecular target: SMG-1, full length, SBP-tagged (human, UniProt Q96Q15 1-3661)
[2] = molecular target: SMG-1–9 complex (human | , UniProt Q96Q15;Q9H0W8)
[3] = molecular target: SMG-1–8–9 complex (human | , UniProt Q96Q15;Q8ND04;Q9H0W8)
[4] = molecular target: SMG-1ΔC-8–9 complex (human | , UniProt Q96Q15;Q8ND04;Q9H0W8, deleted from the residues 2442 to 3591)

Kd [1]: 75 nM
Kd [2]: 56 nM
Kd [3]: 38 nM
Kd [4]: 221 nM
B1: UPF1, full length, fluorescently labeled with NT-547 (natural protein)
chain: MSVEAYGPSSQTLTFLDTEEAELLGADTQGSEFEFTDFTLPSQTQTPPGGPGGPGGGGAGGPGGAGAGAAAGQLDAQVGPEGILQNGAVDDSVAKTSQLLAELNFEEDEEDTYYTKDLPIHACSYCGIHDPACVVYCNTSKKWFCNGRGNTSGSHIVNHLVRAKCKEVTLHKDGPLGETVLECYNCGCRNVFLLGFIPAKADSVVVLLCRQPCASQSSLKDINWDSSQWQPLIQDRCFLSWLVKIPSEQEQLRARQITAQQINKLEELWKENPSATLEDLEKPGVDEEPQHVLLRYEDAYQYQNIFGPLVKLEADYDKKLKESQTQDNITVRWDLGLNKKRIAYFTLPKTDSGNEDLVIIWLRDMRLMQGDEICLRYKGDLAPLWKGIGHVIKVPDNYGDEIAIELRSSVGAPVEVTHNFQVDFVWKSTSFDRMQSALKTFAVDETSVSGYIYHKLLGHEVEDVIIKCQLPKRFTAQGLPDLNHSQVYAVKTVLQRPLSLIQGPPGTGKTVTSATIVYHLARQGNGPVLVCAPSNIAVDQLTEKIHQTGLKVVRLCAKSREAIDSPVSFLALHNQIRNMDSMPELQKLQQLKDETGELSSADEKRYRALKRTAERELLMNADVICCTCVGAGDPRLAKMQFRSILIDESTQATEPECMVPVVLGAKQLILVGDHCQLGPVVMCKKAAKAGLSQSLFERLVVLGIRPIRLQVQYRMHPALSAFPSNIFYEGSLQNGVTAADRVKKGFDFQWPQPDKPMFFYVTQGQEEIASSGTSYLNRTEAANVEKITTKLLKAGAKPDQIGIITPYEGQRSYLVQYMQFSGSLHTKLYQEVEIASVDAFQGREKDFIILSCVRANEHQGIGFLNDPRRLNVALTRARYGVIIVGNPKALSKQPLWNHLLNYYKEQKVLVEGPLNNLRESLMQFSKPRKLVNTINPGARFMTTAMYDAREAIIPGSVYDRSSQGRPSSMYFQTHDQIGMISAGPSHVAAMNIPIPFNLVMPPMPPPGYFGQANGPAAGRGTPKGKTGRGGRQKNRFGLPGPSQTNLPNSQASQDVASQPFSQGALTQGYISMSQPSQMSQPGLSQPELSQDSYLGDEFKSQIDVALSQDSTYQGERAYQHGGVTGLSQY
modifications: NT-547 dye on amines, on average one fluorescent moiety per UPF1 molecule
